The nanobody polyreactivity screen of Harvey et al. (2022)

Assay: yeast display, Sf9 membrane polyspecificity reagent, FACS + sequencing; frameworks hold sequencing errors
How it was run: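 Galactose-induced (36–48 hours) yeast carrying a synthetic nanobody display library were exposed to 10% biotinylated, detergent-solubilized Sf9 membrane reagent at 4 °C for 1 hour. FACS followed streptavidin microbead enrichment, using low and high (top ~1%) gates for expression (anti-HA) and reagent binding (streptavidin). Colony PCR, MiSeq 2 × 250 sequencing and CDR-length filtering followed. Labels for polyreactivity reflect the gate of origin.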
For “QVQLVESGGGLVQAGGSLRLSCAASGFTIYRNAMGWYRQAPGKERELVARIRRTGGRTYYADSVKGRFTISRDNAKNTVNLQMNSLKPEDTAVYYCAAYPGPGARYYYWGQGTQVTVSS”, the “polyreactivity (PSR sort gate)” value was “high polyreactivity”. With “QVQLVESGGGLVQAGGSLRLSCAASGFTLADNTMGWYRQAPGKERELVATISGSGSTYYADSVKGRFTISRDNAKNTVYLQMNSLKPEDTAVYYCAAVDTGTEKDLLRLGNGGYDYWGQGTQVTVSS” the “polyreactivity (PSR sort gate)” value was “low polyreactivity”. With “QVQLVESGGGLVQAGGSLRLSCAASGFTLAGYDMGWYRQAPGKEREFVATISTYADSVKGRFTISRDNAKNTVYLQMNSQKPEDSAVYYCAAGRYLWHFTFDYWGQGTQVTVSS” the “polyreactivity (PSR sort gate)” value was “low polyreactivity”. With “QVQLVESGGGLVQAGGSLRLSCAASGFTLATYAMGWYRQAPGKERELVAAITRSGGSTYYADSVKGRFTISRDNAKNTVYLQMNSLKPEDTAVYYCNAREVRYEYNYWGQGTQVTVSS” the “polyreactivity (PSR sort gate)” value was “low polyreactivity”. With “QVQLVESGGGLVQAGGSLRLSCAASGFTLAYYAMGWSRQAPGKERELVAAISWSGDTTYYADSVKGRFTISRDNAKNTVYLQMNSLKPEDTAVYYCAADYYLWGQGTQVTVSS” the “polyreactivity (PSR sort gate)” value was “high polyreactivity”. In the case of “QVQLVESGGGLVQAGGSLRLSCAASGFTLDKYAMGWYRQAPGKERELVAAITWSGGSTYYADSVKGRFTISRDNAKNTVYLQMNSLKPEDTAVYYCNVLRYRLWGQGTQVTVSS”, the “polyreactivity (PSR sort gate)” value is reported as “high polyreactivity”. With “QVQLVESGGGLVQAGGSLRLSCAASGFTLDPYALGWYRQAPGKERELVAAIRLSGCSTYYADSVKGRFTISRDNAKNTVYLQMNSLKPEDTAVYYCAADGISHWLYRYDYWGQGTQVTVSS” the “polyreactivity (PSR sort gate)” value was “low polyreactivity”. For “QVQLVESGGGLVQAGGSLRLSCAASGFTLDWYAMGWYRQAPGKERELVAAIWSAGTTYYADSVKGRFTISRDNAKNTVYLQMNSLKPEDTAVYYCATVSDYDFGLYDYWGQGSQVTVSS”, the “polyreactivity (PSR sort gate)” value was “low polyreactivity”. In the case of “QVQLVESGGGLVQAGGSLRLSCAASGFTLDWYVMGWYRQATGKERELVAAISSSGGRTYYADSVKGRFTISRDNAKNTVYLQMNSLKPEDTAVYYCAARNQYGGYPYGYDYWGQGTQVTVSS”, the “polyreactivity (PSR sort gate)” value is reported as “high polyreactivity”. For “QVQLVESGGGLVQAGGSLRLSCAASGFTLDYYAMGWYRKAPGKERELVAAISFSGGSTYYADSVKGRFTISRDNAKNTVYLQMNSLKPEDTAVYYCAADPQIVWYDYWGQGTQVTVSS”, the “polyreactivity (PSR sort gate)” value was “low polyreactivity”. For “QVQLVESGGGLVQAGGSLRLSCAASGFTLEYYAMGWYRQAPGKERELVAAITNGASTNYADSVKGRFTISRDNAKNTVYLQMNSLKPEDTAVYYDYWGQGTQVTVSS”, the “polyreactivity (PSR sort gate)” value was “low polyreactivity”. With “QVQLVESGGGLVQAGGSLRLSCAASGFTLFFYAMGWYRQAPGKEREFVASIRTSGGSTYYADSVKGRFTISRDNAKNTVYLQMNSLKPEDTAVYYCAARPLYGYGYWGQGTQVTVSS” the “polyreactivity (PSR sort gate)” value was “high polyreactivity”. With “QVQLVESGGGLVQAGGSLRLSCAASGFTLGGYAMGWYRQAPGKEREFVAAISGRGGRTYYADSVKGRFTISRDNAKNTVYLQMNSLKPEDTAVYYCAAPTNHWTRLSGDYWGQGTQVTVSS” the “polyreactivity (PSR sort gate)” value was “high polyreactivity”. In the case of “QVQLVESGGGLVQAGGSLRLSCAASGFTLGNYAMGWYRQAPGKERELVAVITSGGRTYYADSVKGRFTISRDNAKNTVYLQMNSLKPEDTAVYYCNTKVYYYYRAVVDFDYWGQGTQVTVSS”, the “polyreactivity (PSR sort gate)” value is reported as “low polyreactivity”. For “QVQLVESGGGLVQAGGSLRLSCAASGFTLGRNAMGWYRQAPGKERELVASISGRGGSSYYADSVKGRFTISRDNAKNTVYLQMNSLKPEDTAVYYCAARGVSGKYYYWGQGTQVTVSS”, the “polyreactivity (PSR sort gate)” value was “high polyreactivity”. For “QVQLVESGGGLVQAGGSLRLSCAASGFTLGTYAMGWYRQAPGKERELVAAISRGGGITYYADSVKGRFTISRDNAKNTVYLQMISLKPEDTAVYDCAADWRYWRWAFDYWGQGTQVTVSS”, the “polyreactivity (PSR sort gate)” value was “high polyreactivity”. For “QVQLVESGGGLVQAGGSLRLSCAASGFTLGWYAMGWYRQAPGKERELVAAISRSGGSTYYADSVKGRFTISRDNAKNTVYLQMNCLKPEDTGVYYCAAEVNYAGRAVWSYYWGQGTQVTVSW”, the “polyreactivity (PSR sort gate)” value was “high polyreactivity”. In the case of “QVQLVESGGGLVQAGGSLRLSCAASGFTLIHYAMGWYRQAPGKERELVAGITTSGGSTYYADSVKGRFTISRDNAKNTGYLQMNSLKPEDTAVYYCNAEYRRRPKLGDEDEYWGQGTQVTVSS”, the “polyreactivity (PSR sort gate)” value is reported as “high polyreactivity”. For “QVQLVESGGGLVQAGGSLRLSCAASGFTLKRYAMGWYRQAPGKERELVAAISTGGSTYYADSVKGRFTISRDNAKNTVYLQMNSLKPEDTAVYYCAAKRYNRLRSYRYSDREDYWGQGTQVTVSS”, the “polyreactivity (PSR sort gate)” value was “high polyreactivity”. For “QVQLVESGGGLVQAGGSLRLSCAASGFTLKYNTMGWYRPAPGKERELVAAISRIGGRTYYADSVKGRFTISRDYAKNTVYLHKNSLKPEDTAVYYCAAVYRVCWRTYGYWGQGTQVTVSS”, the “polyreactivity (PSR sort gate)” value was “high polyreactivity”. With “QVQLVESGGGLVQAGGSLRLSCAASGFTLQGYAMGWYRQAPGKERELVAAIRWIGTSTYYADSVKGRFTISRDIAKNTVYLQMNSLKPEDTAVYYCAAYRYNTPFGYWGQGTQVTVSS” the “polyreactivity (PSR sort gate)” value was “high polyreactivity”. For “QVQLVESGGGLVQAGGSLRLSCAASGFTLQVYDMGWYRQAPGKERELVADISGSGDSTNYADSVKGRFTISRDNAKNTVYLQMNSLKPEDTAVYYCAAEVRGGYYGYDYWGQGTQVTVSS”, the “polyreactivity (PSR sort gate)” value was “low polyreactivity”. In the case of “QVQLVESGGGLVQAGGSLRLSCAASGFTLRLYTMGWYIQAPGKERELVAAISRSGGSTYYADSVKGRFTISRDNAKNTVYLQMNSLKPEDPAVYYCNAKNGRPGFNMYHWGQGTQVTVSS”, the “polyreactivity (PSR sort gate)” value is reported as “high polyreactivity”. For “QVQLVESGGGLVQAGGSLRLSCAASGFTLRRNAIGWYRQAPGKERELVAAISSSGSTYYADSVKGRFTISRDNAKNTVYLQMYSLKPEDTAVYYCAAQPGRRAGRSGFDYWGQGTQVNVSS”, the “polyreactivity (PSR sort gate)” value was “high polyreactivity”. For “QVQLVESGGGLVQAGGSLRLSCAASGFTLSRYVMGWYRQAPGKERELVATISTDTGDTYYADSVKGRFTISRDNAKNTVYLQMNSLKPEDTAVYYCAVEEWYIYLDLYWSYYYWGQGTQVTVSS”, the “polyreactivity (PSR sort gate)” value was “high polyreactivity”. With “QVQLVESGGGLVQAGGSLRLSCAASGFTLSYYAMGWYRQAPGKERELVAAMTWSDTSTYYADSVKGRFTISRDKAKNTVYVQMNSLKPEDTAVYYCAAEDEWVTWGWGYYYWGQGTQVTVSS” the “polyreactivity (PSR sort gate)” value was “high polyreactivity”. With “QVQLVESGGGLVQAGGSLRLSCAASGFTLWLNAMGWYRQAPGKERELVAAITTSDDGTYYADSVKGRFTISRDNAKKTVYLQMNSLKPEDTAVYYCAADYYSVLYDYWGQGTQVTVSS” the “polyreactivity (PSR sort gate)” value was “low polyreactivity”. In the case of “QVQLVESGGGLVQAGGSLRLSCAASGFTLYYYDKGWYRQSPGKERELVAAISYSGGTTYYADSVKGRFTISRDNAKNTVYLQMNSLNPDDTAVYYCAAEVGGYWADEYLGYDYWGLGTQVTVSS”, the “polyreactivity (PSR sort gate)” value is reported as “low polyreactivity”. In the case of “QVQLVESGGGLVQAGGSLRLSCAASGFTRIYAMGWYRQAPGKERELVAAISQRGGRTYYADSVKGRFTISRDNAKNTVYLQMNSLKPEDTAVYYCAVRGPYQGRTRYYYWGQGTQVTVSS”, the “polyreactivity (PSR sort gate)” value is reported as “high polyreactivity”. In the case of “QVQLVESGGGLVQAGGSLRLSCAASGFTSDAYAMGCYRQAPGKDRELVAAISGSGDITYYADSVKGRFTISRDNAKYTVYFQMNSLKPEDTAVYYCSVGSYYAWFYYWGQGTQVTVSS”, the “polyreactivity (PSR sort gate)” value is reported as “high polyreactivity”. In the case of “QVQLVESGGGLVQAGGSLRLSCAASGFTSEYNAMGWYRQAPGNERELVAAITSGGSTYYADSVEGRFTISRDNAKNTVYLQMNSLKPEDTAVDYCAADYYVWGYLLEYGGQGTQVTVSS”, the “polyreactivity (PSR sort gate)” value is reported as “high polyreactivity”. For “QVQLVESGGGLVQAGGSLRLSCAASGFTSLIYAMGWSRQAPGKESELVATITWGGGSTYADSVKGRFTISRDNAKNTVYLQMNSLKPEDTAVYYCNADIYDSWDYATVYSDRYDYWGQGTQVTVSS”, the “polyreactivity (PSR sort gate)” value was “low polyreactivity”. With “QVQLVESGGGLVQAGGSLRLSCAASGFTSLVNAMGWYRQAPGKERELVAAITGGGSTNYADSVKGRFTISRDNAKNTVYLQMNSLKPEDTAVYYCNAVGYYGYPRIPQFYAFAFYYWGQGTQVTVSS” the “polyreactivity (PSR sort gate)” value was “low polyreactivity”. In the case of “QVQLVESGGGLVQAGGSLRLSCAASGFTSNYYAMGWYRQAPGKERELVAAITTGGSTHYADSVKGRFTISRDNAKNTVYLQMNSLKPEDTAVYYCAAGTNRQQQRYFHHGGYYQYNYWGQGTQVTVSS”, the “polyreactivity (PSR sort gate)” value is reported as “low polyreactivity”. With “QVQLVESGGGLVQAGGSLRLSCAASGFTSSQYAMGWYRQAPGKERELVAAITSSGSSTYYADSVKGRFTISRDNAKNTVYLQMNSLKPEDTAVYYCNTDAYHRYPGSVWYYYWGQGTQVTVSS” the “polyreactivity (PSR sort gate)” value was “high polyreactivity”. In the case of “QVQLVESGGGLVQAGGSLRLSCAASGFTSWQYAMGWSIQAPGKERELVAAISVSGASTYYADSVKGRFTISRDNAKNTVYLQMNSLKPEDTAVYYCAAAYVRYPTTRYYYWGQGTQVTVSS”, the “polyreactivity (PSR sort gate)” value is reported as “high polyreactivity”. For “QVQLVESGGGLVQAGGSLRLSCAASGFTVGYNAMGWYRQAPGKERELVAAIDKRGDSTYADSVKGRFTISRDNAKNTVYLQMNSLKPEDTAVYYCAADSDSKYNYGFLWDTYESWGQGTQVTVSS”, the “polyreactivity (PSR sort gate)” value was “low polyreactivity”. In the case of “QVQLVESGGGLVQAGGSLRLSCAASGFTVTWYAMAWYRQAPGKERELVASISRSGGSTYYADSVKGRFTISRDNAKNTVSLQMISLKPEDSAVYYCAAVSRTRSYDYWRQGTQVTVSS”, the “polyreactivity (PSR sort gate)” value is reported as “high polyreactivity”. In the case of “QVQLVESGGGLVQAGGSLRLSCAASGFTVYKYVKGWYRQAPGKERELVAAITTSGGSTYYADSVKGRFTISRDNPKNTVYLQMNSLKPEDTAVYYCNARSLHTSEGDYWGQGTQVTVSS”, the “polyreactivity (PSR sort gate)” value is reported as “low polyreactivity”. With “QVQLVESGGGLVQAGGSLRLSCAASGFTYGSNAMGWYRQAPGKERELVATISRRGGRTYYADSVKGRFTISRDNAKNTVYLQMNSLKPEDTAVYYCAADRSRPGYDYWGQGTQVTVSS” the “polyreactivity (PSR sort gate)” value was “high polyreactivity”. In the case of “QVQLVESGGGLVQAGGSLRLSCAASGFTYLYNAMGWYRQAPGKERELVASINSGGSTNYADSVKGRFTISRDNAKNSVYLQMNSLKPEDTAVYFCNAKRLVRKGDYWGQGTQVTVSS”, the “polyreactivity (PSR sort gate)” value is reported as “low polyreactivity”. In the case of “QVQLVESGGGLVQAGGSLRLSCAASGFTYRYYTMGLYRQAPGKERELVAAINTSGAGTYYADSVKGRFTISRDNAKNTVYLQMNSLKPEDTAVYYCAATWYGLDYNYWGQGTQVTVSS”, the “polyreactivity (PSR sort gate)” value is reported as “high polyreactivity”. In the case of “QVQLVESGGGLVQAGGSLRLSCAASGFTYYVNAMGWYRPAPGKERELDAAISSSGTRTYYADSVKGRFTISRDNAKNTVYLQMNSLKPEDTAVYYCAARGQAYSGDRMYYWGQGTQVTVSS”, the “polyreactivity (PSR sort gate)” value is reported as “high polyreactivity”.
